Numbering of substitutions follows the chain as printed. In names and notes the source's numbering stands. Like-named read-outs stand apart in the source and are kept apart here.
T1: T4 clamp loader (gp44/gp62), wild type;T4 sliding clamp gp45 (bacteriophage T4;bacteriophage T4, UniProt P04526;P04527;P04525 1-319;1-187;1-228, |)
T1 sequence 1: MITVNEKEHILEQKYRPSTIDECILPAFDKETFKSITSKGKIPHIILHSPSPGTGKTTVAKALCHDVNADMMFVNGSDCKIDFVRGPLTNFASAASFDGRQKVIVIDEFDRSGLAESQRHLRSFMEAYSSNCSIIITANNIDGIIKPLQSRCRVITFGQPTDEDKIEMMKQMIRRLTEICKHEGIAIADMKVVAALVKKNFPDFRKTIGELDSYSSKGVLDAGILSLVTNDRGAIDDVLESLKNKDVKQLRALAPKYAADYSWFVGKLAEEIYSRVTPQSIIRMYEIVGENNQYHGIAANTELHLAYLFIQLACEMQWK
T1 sequence 2: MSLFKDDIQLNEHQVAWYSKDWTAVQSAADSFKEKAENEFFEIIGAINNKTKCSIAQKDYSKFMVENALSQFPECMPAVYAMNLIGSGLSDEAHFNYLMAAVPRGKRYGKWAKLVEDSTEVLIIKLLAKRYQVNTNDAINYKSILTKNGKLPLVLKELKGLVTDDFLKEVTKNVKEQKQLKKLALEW
T1 sequence 3: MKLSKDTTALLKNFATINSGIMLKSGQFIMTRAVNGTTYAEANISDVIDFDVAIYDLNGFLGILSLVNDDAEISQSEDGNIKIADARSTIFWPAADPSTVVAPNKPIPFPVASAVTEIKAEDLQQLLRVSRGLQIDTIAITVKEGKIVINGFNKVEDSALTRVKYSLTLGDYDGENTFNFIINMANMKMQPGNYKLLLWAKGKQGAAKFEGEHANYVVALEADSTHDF

T2: T4 clamp loader D110C/G143R;T4 sliding clamp gp45 (bacteriophage T4;bacteriophage T4, UniProt P04526;P04527;P04525 1-319;1-187;1-228, D110C;G143R|)
T2 sequence 1: T1 sequence 1 with D110C, G143R
T2 sequence 2: T1 sequence 2
T2 sequence 3: T1 sequence 3

T3: T4 clamp loader D110C/P50K (P50K*);T4 sliding clamp gp45 (bacteriophage T4;bacteriophage T4, UniProt P04526;P04527;P04525 1-319;1-187;1-228, P50K;D110C|)
T3 sequence 1: T1 sequence 1 with P50K, D110C
T3 sequence 2: T1 sequence 2
T3 sequence 3: T1 sequence 3

B1: T4 bacteriophage sliding clamp (gp45) (natural protein)
chain: T1 sequence 3
B2: T4 bacteriophage clamp-loader ATPase subunit gp44 (wild type) (natural protein)
chain: T1 sequence 1
B3: T4 bacteriophage clamp-loader ATPase subunit gp44 D110C (natural protein)
chain: T1 sequence 1 with D110C
B4: T4 bacteriophage clamp-loader clasp subunit gp62 (natural protein)
chain: T1 sequence 2
B5: TAMRA primer-template DNA (dsDNA)
DNA 1: TTTTTTTTTTTTATGTACTCGTAGTGTCTG
DNA 2: GCAGACACTACGAGTACATA

What was measured:
crystal structure [1] = biological target: the molecule itself; assay: crystal structure
crystal structure [2] = biological target: the molecule itself; assay: crystal structure; remark: listed apart in the source
[3] = biological target: B2; assay: cryo-EM structure
[4] = biological target: B1; assay: cryo-EM structure
[5] = biological target: B3; assay: crystal structure
[6] = biological target: T1, T4 clamp loader (gp44/gp62), wild …; assay: fluorescence anisotropy
[7] = biological target: T2, T4 clamp loader D110C/G143R;T4 sliding …; assay: fluorescence anisotropy
[8] = biological target: T3, T4 clamp loader D110C/P50K (P50K*);T4 …; assay: fluorescence anisotropy

B1: binds (crystal structure [1]).

B2: binds (crystal structure [2]).

B3: binds (crystal structure [1]).

B4: binds [3]; binds [4]; binds [5].

For B5, the Kd [6] was about 40 nM, the binding result [7] was “binds” and the binding result [8] was “binds”.

Reference: PMC10950542 (Nature structural & molecular biology, 2024)
